Data reported in patent publication US11453711B2, “Fusion proteins of GLP-1 and GDF15 and conjugates thereof” (BEIJING QL BIOPHARMACEUTICAL CO., LTD., priority 2019, dated 2022).
Changes are numbered by the printed parent chain.

B1: MLC003: unconjugated GLP-1/GDF15 fusion protein (protein)
chain: HGEGTFTSDVSSYLEEQAAKEFIAWLVRGGGGQEPGQEPGQEPGQEPGQEPGQEPGQEPGQEPGAQPGAQPARQGDHCPLGPGRCCRLHTVRASLEDLGWADWVLSPREVQVTMCIGACPSQFRAANLHAQIKTSLHRLRPDTVPAPCCVPASYNPMVLIQRTDTGVSLQTYDDLLARDCHCI
B2: MLC020: unconjugated GLP-1/GDF15 fusion protein (protein)
chain: B1 chain with R140K, R162K, R178K
B3: MLC019: unconjugated GLP-1/GDF15 fusion protein, linker of at least 80 residues (protein)
chain: HGEGTFTSDVSSYLEEQAAKEFIAWLVRGGGGQEPGAQPGQEPGAQPGQEPGAQPGQEPGAQPGQEPGAQPGQEPGAQPGAQPGAQPGAQPGAQPGAQPGAQPGAQPGAQPARQGDHCPLGPGRCCRLHTVRASLEDLGWADWVLSPREVQVTMCIGACPSQFRAANLHAQIKTSLHRLRPDTVPAPCCVPASYNPMVLIQRTDTGVSLQTYDDLLARDCHCI
B4: MLC023: unconjugated GLP-1/GDF15 fusion protein (protein)
chain: HGEGTFTSDVSSYLEEQAAKEFIAWLVRGGGGQEPGQEPGQEPARQGDHCPLGPGRCCRLHTVRASLEDLGWADWVLSPREVQVTMCIGACPSQFRAANLHAQIKTSLHRLKPDTVPAPCCVPASYNPMVLIQKTDTGVSLQTYDDLLAKDCHCI
B5: MLC100: unconjugated GLP-1/GDF15 fusion protein (protein)
chain: HGEGTFTSDVSSYLEEQAAKEFIAWLVRGGGGQEPARQGDHCPLGPGRCCRLHTVRASLEDLGWADWVLSPREVQVTMCIGACPSQFRAANLHAQIKTSLHRLKPDTVPAPCCVPASYNPMVLIQKTDTGVSLQTYDDLLAKDCHCI
B6: MLC102: unconjugated GLP-1/GDF15 fusion protein (protein)
chain: HGEGTFTSDVSSYLEEQAAKEFIAWLVRGGGGQEPGAQPGQEPGAQPGQEPGAQPGQEPGAQPGQEPGAQPGQEPGAQPGAQPGAQPGAQPGAQPGAQPGAQPGAQPGAQPGAQPGAQPGAQPGAQPGAQPGAQPGAQPGAQPGAQPGAQPARQGDHCPLGPGRCCRLHTVRASLEDLGWADWVLSPREVQVTMCIGACPSQFRAANLHAQIKTSLHRLKPDTVPAPCCVPASYNPMVLIQKTDTGVSLQTYDDLLAKDCHCI

Assays:
[1] = Body weight and food intake in C57BL/6 mice, unconjugated fusion proteins, 30 nmol/kg daily 10 days; assay type: in vivo; settings: for Body weight reduction at 30 nmol/kg (% reduction compared to vehicle)(Day11) / Cumulative food intake reduction at 30 nmol/kg (% reduction compared to vehicle)(Day11): C57 mice, 30 nmol/kg daily, Day11, unconjugated fusion proteins
Procedure: 10 week old male C57BL/6 mice were injected everyday subcutaneously with 15 nmol/kg of the fusion protein conjugates (i.e., MLC002, MLC 004, MLC 005, MLC 006, MLC 007, MLC 008, and MLC 009) for 14 days. Food intake and body weight were measured daily and five animals were used for each treatment group. Body weight (BW) was monitored for each individual animal, but food intake for each group animals was measured together. Day 1 and Day 14 are first day and last day of molecule dosage. % BW loss=100*(BW on Day n-BW on Day 1)/(BW on Day 1). Cumulative food intake on Day n represents sum of food intake from Day 1 to Day n. Data are indicated as mean values and standard error (SEM) or pooled values. Statistical analysis was performed by One-way ANOVA. Body weight reduction on Day 11 is calculated by −1*(% BW loss−% BW loss of vehicle group); Cumulative food intake reduction is calculated by −100*(cumulative food intake-cumulative food intake of vehicle)/cumulative food intake of vehicle.
As described in the above method, a daily dose of 30 nmol/kg of the unconjugated fusion proteins (i.e., MLC100, MLC023, MLC022, MLC020, MLC003, MLC124, MLC021, MLC019, MLC102) were administered to C57BL/6 for 10 days. Data were calculated as above method. Day 1 and Day 10 are first day and last day of administration.

[2] = Pharmacokinetic measurement in mouse, single sc dose 30 nmol/kg, plasma ELISA; settings: for Cmax: read-out: Cmax (nmol/L), single sc dose 30 nmol/kg; for exposure (Cmax and AUC) / half-life (T1/2): single sc 30 nmol/kg, in words; for AUC0-24 h / Terminal t1/2 / Tmax: single sc dose 30 nmol/kg

Molecule	Body weight reduction at 30 nmol/kg (% reduction compared to vehicle)(Day11) [1] [%]	Cumulative food intake reduction at 30 nmol/kg (% reduction compared to vehicle)(Day11) [1] [%]	Cmax [2] [nmol/L]	exposure (Cmax and AUC) [2]	half-life (T1/2) [2]	AUC0-24 h [2] [µM·h]	Terminal t1/2 [2] [h]	Tmax [2] [h]	in vivo efficacy (food intake and body weight reduction) ([1]; unconjugated fusion proteins, 30 nmol/kg daily 10 days, by linker length)
B1	15.5	25.3	24.7	much shorter half-lives and exposures than MLC002 and MLC004	much shorter half-lives and exposures than MLC002 and MLC004	0.1074	3.5	1.0	–
B2	17.0	26.0	–	–	–	–	–	–	–
B3	23.0	48.6	23.7	much shorter half-lives and exposures than MLC002 and MLC004	much shorter half-lives and exposures than MLC002 and MLC004	0.2639	4.8	4.0	the most significant results among all the tested fusion proteins
B4	12.5	31.7	–	–	–	–	–	–	–
B5	9.9	26.3	–	–	–	–	–	–	–
B6	29.3	36.9	–	–	–	–	–	–	–
